Assay results from patent publication US20220213196A1 (published 2022).

Target: T1, MAGEA3 peptide on HLA-A*01:01 (human)
T1 peptide: EVDPIGHLY
Assay: multimer staining

- binding result: recognises
B1:  (TCR, V domains shown)
Valpha: KQEVTQIPAALSVPEGENLVLNCSFTDSAIYNLQWFRQDPGKGLTSLLLIQSSQREQTSGRLNASLDKSSGRSTLYIAASQPGDSATYLCAVDNYGQNFVFGPGTRLSVLP
Vbeta: RPQVTQNPRYLITVTGKKLTVTCSQNMNHEYMSWYRQDPGLGLRQIYYSMNVEVTDKGDVPEGYKVSRKEKRNFPLILESPSPNQTSLYFCASSTTGSSPLHFGNGTRLTVT
